Test results from patent US20110129816A1 (NATIONAL UNIVERSITY CORPORATION UNIVERSITY OF TOYAMA, published 2011).
Like-named read-outs stand apart in the source and are kept apart here.

T1: nucleoprotein of influenza virus B/Ann Arbor/1/86 (viral strain) (influenza B virus B/Ann Arbor/1/86, UniProt P11102 1-560)
T1 sequence: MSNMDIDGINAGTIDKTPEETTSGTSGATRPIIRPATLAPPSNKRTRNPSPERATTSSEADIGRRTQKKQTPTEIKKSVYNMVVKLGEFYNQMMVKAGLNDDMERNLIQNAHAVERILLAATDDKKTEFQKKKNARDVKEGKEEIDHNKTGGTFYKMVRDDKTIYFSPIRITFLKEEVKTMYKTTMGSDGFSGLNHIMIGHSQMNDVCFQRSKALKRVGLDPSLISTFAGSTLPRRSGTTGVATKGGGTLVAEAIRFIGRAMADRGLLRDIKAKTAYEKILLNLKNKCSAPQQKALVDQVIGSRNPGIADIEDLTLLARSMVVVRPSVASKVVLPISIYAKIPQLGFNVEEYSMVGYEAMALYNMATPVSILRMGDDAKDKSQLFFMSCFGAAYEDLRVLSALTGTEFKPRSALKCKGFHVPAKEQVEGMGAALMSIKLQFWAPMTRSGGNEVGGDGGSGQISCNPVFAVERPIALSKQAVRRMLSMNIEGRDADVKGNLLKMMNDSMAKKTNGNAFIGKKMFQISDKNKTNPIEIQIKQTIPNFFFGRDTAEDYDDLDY

T2: nucleoprotein of influenza virus B/Panama/45/90 (influenza B virus B/Panama/45/90, UniProt O36433 1-560)
T2 sequence: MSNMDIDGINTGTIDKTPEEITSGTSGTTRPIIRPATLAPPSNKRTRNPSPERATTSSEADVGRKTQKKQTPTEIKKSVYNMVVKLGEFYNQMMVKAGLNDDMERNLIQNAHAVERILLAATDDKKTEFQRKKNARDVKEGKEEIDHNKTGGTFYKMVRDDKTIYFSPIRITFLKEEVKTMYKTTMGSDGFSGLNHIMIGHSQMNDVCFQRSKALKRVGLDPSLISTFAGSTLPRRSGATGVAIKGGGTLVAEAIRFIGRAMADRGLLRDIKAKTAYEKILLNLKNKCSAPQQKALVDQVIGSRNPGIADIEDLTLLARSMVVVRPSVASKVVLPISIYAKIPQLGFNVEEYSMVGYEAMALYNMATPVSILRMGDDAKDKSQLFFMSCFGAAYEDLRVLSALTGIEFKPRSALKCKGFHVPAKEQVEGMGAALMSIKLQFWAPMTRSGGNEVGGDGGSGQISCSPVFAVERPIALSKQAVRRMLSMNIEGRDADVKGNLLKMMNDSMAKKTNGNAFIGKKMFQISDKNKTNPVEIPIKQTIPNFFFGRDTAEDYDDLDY

T3: nucleoprotein of influenza virus B/Singapore/222/79 (influenza B virus B/Singapore/222/79, UniProt P04666 1-560)
T3 sequence: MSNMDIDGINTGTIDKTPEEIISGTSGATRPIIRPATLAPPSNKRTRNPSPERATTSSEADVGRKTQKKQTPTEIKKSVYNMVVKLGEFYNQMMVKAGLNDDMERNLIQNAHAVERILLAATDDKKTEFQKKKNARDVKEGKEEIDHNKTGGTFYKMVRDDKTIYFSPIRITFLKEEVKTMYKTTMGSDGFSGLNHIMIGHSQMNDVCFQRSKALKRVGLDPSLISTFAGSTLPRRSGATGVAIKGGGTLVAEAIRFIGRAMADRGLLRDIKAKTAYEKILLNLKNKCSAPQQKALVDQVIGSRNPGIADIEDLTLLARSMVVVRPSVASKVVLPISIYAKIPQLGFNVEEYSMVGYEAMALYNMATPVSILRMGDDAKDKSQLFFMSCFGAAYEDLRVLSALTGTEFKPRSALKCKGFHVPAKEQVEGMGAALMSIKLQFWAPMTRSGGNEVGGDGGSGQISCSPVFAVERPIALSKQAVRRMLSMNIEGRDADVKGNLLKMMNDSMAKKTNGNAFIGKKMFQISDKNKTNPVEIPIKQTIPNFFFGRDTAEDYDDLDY


Columns and labels:
[1] = molecular target: nucleoprotein of influenza virus A/Beijing/262/95 (H1N1) (influenza A virus A/Beijing/262/95 (H1N1)); experiment: sandwich CLIA, acridinium label M322211, S/N>=2.1
[2] = molecular target: nucleoprotein of influenza virus A/Panama/2007/99 (H3N2) (influenza A virus A/Panama/2007/99 (H3N2)); experiment: sandwich CLIA, acridinium label M322211, S/N>=2.1
[3] = molecular target: nucleoprotein of influenza virus B/Victoria/504/00 (influenza B virus B/Victoria/504/00); experiment: SPR (Biacore 2000), antibody captured by anti-IgG
[4] = molecular target: nucleoprotein of influenza virus B/Victoria/504/00 (influenza B virus B/Victoria/504/00); experiment: sandwich CLIA, acridinium label 23G327, S/N>=2.1
[5] = molecular target: T1, nucleoprotein of influenza virus B/Ann …; experiment: same-clone sandwich CLIA
[6] = molecular target: T2, nucleoprotein of influenza virus …; experiment: same-clone sandwich CLIA
[7] = molecular target: T3, nucleoprotein of influenza virus …; experiment: same-clone sandwich CLIA
[8] = molecular target: recombinant influenza A virus nucleoprotein (influenza A virus A/Puerto Rico/8/34, UniProt P03466 1-498); experiment: ELISA on coated recombinant nucleoprotein, culture supernatant
[9] = molecular target: nucleoprotein of influenza virus B/Victoria/504/00 (influenza B virus B/Victoria/504/00); experiment: sandwich CLIA, acridinium label M2110171, S/N>=2.1
[10] = molecular target: nucleoprotein of influenza virus A/Beijing/262/95 (H1N1) (influenza A virus A/Beijing/262/95 (H1N1)); experiment: SPR (Biacore 2000), antibody fixed directly on CM5, virus 10 µg/mL
[11] = molecular target: T1, nucleoprotein of influenza virus B/Ann …; experiment: same-clone sandwich CLIA; remark: listed apart in the source
[12] = molecular target: T2, nucleoprotein of influenza virus …; experiment: same-clone sandwich CLIA; remark: listed apart in the source
[13] = molecular target: T3, nucleoprotein of influenza virus …; experiment: same-clone sandwich CLIA; remark: listed apart in the source
[14] = molecular target: nucleoprotein of influenza virus A/Beijing/262/95 (H1N1) (influenza A virus A/Beijing/262/95 (H1N1)); experiment: sandwich CLIA, acridinium label 23G285, S/N>=2.1
[15] = molecular target: nucleoprotein of influenza virus A/Panama/2007/99 (H3N2) (influenza A virus A/Panama/2007/99 (H3N2)); experiment: sandwich CLIA, acridinium label 23G285, S/N>=2.1

Molecule | binding result [11] | binding result [12] | binding result [13] | further results
mouse anti-influenza A virus nucleoprotein monoclonal antibody ATCC HB-65 |  |  |  | detection sensitivity [1]: 50 ng/mL; detection sensitivity [2]: 50 ng/mL
human anti-influenza B virus nucleoprotein monoclonal antibody 23G327 (antibody, V domains shown, also called 23G327 antibody) VH: QVQLVQSGAEVKRPGASVKVSCKASGYNLIDFYVNWVRQVPGQGLEWMGYINPDSGGAHYEGKFQGRVIMTRDTSINTAYMELPSLTSDDTAVYFCARGASSGLLTYYYGLDVWGEGTTVIVSS VL: DIQMTQSPSSLSASIGDRVTITCRASPGINSYLAWYQHKPGKAPKLLIYAASTLQSGVPSRFSGSGSGTDFTLTISSLQPEDVATYYCQKYNSAPWTFGPGTKVEIK |  |  |  | reactivity (bound antigen per bound antibody) relative to 41027 [3]: 2 fold; reactivity (bound antigen per bound antibody) relative to M2110171 [3]: 1.2 fold; reactivity (bound antigen per bound antibody) relative to antibody 2/3 [3]: 0.8 fold; detection sensitivity [4]: 125 ng/mL; binding result [5]: binds; binding result [6]: binds; binding result [7]: binds; binding result [8]: no binding; detection sensitivity [9]: 31.3 ng/mL
human anti-influenza A virus nucleoprotein monoclonal antibody 23G272 (antibody, V domains shown, also called 23G272 antibody) VH: QVQLVQSGAEVKKPGSSVKVSCKATGDTFSSYSISWVRQAPGQGLEWMGRVTPSFGISLYAQKFQGRVTITADRSSSTAYMELNNLTSDDTAVYYCAAGGLVVVVANHWGQGTLVTVSS VL: EIVLTQSPATLSASVGDRVTITCRASQDITSSLGWYQQRAGEAPKLLLFAASRLESGVPSRFSGSGSGTEYTLTISNLQPEDFATYYCLHYFGSRPWTFGQGTKVEIKR | no binding (tested: S/N<2.1) | no binding (tested: S/N<2.1) | no binding (tested: S/N<2.1) | amount of bound antigens relative to HB-65 [10]: 10 fold
human anti-influenza A virus nucleoprotein monoclonal antibody 23G268 (antibody, V domains shown, also called 23G268 antibody) VH: QVQLVQSGAVVKKPGDSVKVSCKASGYTFTTYWMHWVRQAPGQGPEWMGIVNPTGGTVMYAKKFQGRVIMTRDTSTTTVFLQLNGLESEDTAIYYCARDLGPARVDFDWLSTFVSWGQGTLVTVSS VL: DIQMTQSPSSLSASVGDRVIITCRASQGITRHLNWYQQKSGKAPKLLIYDASSLQSGVPSRFSGSGSGADFTLTISSVQPEDFATYYCQQSYSNPPTFGPGTKVDIKR | no binding (tested: S/N<2.1) | no binding (tested: S/N<2.1) | no binding (tested: S/N<2.1) | detection sensitivity [14]: 6.25 ng/mL; detection sensitivity [15]: 6.25 ng/mL
human anti-influenza A virus nucleoprotein monoclonal antibody 23G285 (antibody, V domains shown, also called 23G285 antibody) VH: QVQLVQSGGGVVQPGRSLRLSCAASGFTFSRYGMHWVRQAPGKGLEWVAVILYEGINKDYADSVKGRFTISRDNSKNTLYLQMNSLRAEDTAVYYCARDRELRLDYWGQGTLVTVSS VL: QSVLTQPPSVSGAPGQRVTFSCTGSSSNIGAGYDVNWYQQLPGTAPKVLIYGNTNRPSGVPDRFSASKSGTSASLAITGLQAEDEADYYCQSYDSSLRGYVFGTGTKVSVL | no binding (tested: S/N<2.1) | no binding (tested: S/N<2.1) | no binding (tested: S/N<2.1) | 
human anti-influenza A virus nucleoprotein monoclonal antibody 23G312 (antibody, V domains shown, also called 23G312 antibody) VH: QVQLVQSGGGLVQPGRSLRLSCIASGFSFDDYAMHWVRQIPGKGLEWVSGISWNSGARGYADSVKGRFTISRDNAKNSLYLQMNSLRVGDTAFYYCARDMGAGPNDYDTSGNYPLHLYGMDVWGHGTTVTVSS VL: EIVLTQSPATLSVSPGDRATLSCRASQSVSDKLAWYQQKPGQAPRLLIYGAYTRATGTPARFSGSGSGTEFTLSITGLQAEDFAIYYCHQYNNWPLTFGGGTKVDIK | no binding (tested: S/N<2.1) | no binding (tested: S/N<2.1) | no binding (tested: S/N<2.1) | 
human anti-influenza A virus nucleoprotein monoclonal antibody 23G447 (antibody, V domains shown, also called 23G447 antibody) VH: QVQLQESGPGLVKPSQTLSLTCSVSGGSISNPDHYWNWIRQPPGKGLEWIGYIYYTGRTWYSPSLKSRVSLSVDTSKSQFSLNVDSVIAADTAVYYCARSHVWFGELYWGQGALVTVSS VL: QSVLTQPPSVSAAPGQKVTISCSGRSSNVGDNYVSWYQQFPGTAPKLLIYDNTKRPSGIPDRFSGSKSGTSATLGITGLQTGDEAAYYCATWDSVLSAGVFGGGTKLTVL | no binding (tested: S/N<2.1) | no binding (tested: S/N<2.1) | no binding (tested: S/N<2.1) | 
human anti-influenza A virus nucleoprotein monoclonal antibody 23G494 (antibody, V domains shown, also called 23G494 antibody) VH: QVQLVQSGGGLVKPGGSLRLSCAGSGFSFSDYYMTWIRQAPGKGLEWVSSINSGSTVTNYADSVQGRFTISRDKNSVYLQMNSLRTEDTAVYYCARDFGIKAGTSDYWGQGTLVTVSS VL: DIQMTQSPSSLSASVGDRVTITCRASQTISNFLNWYQQKPGKAPKLLIYAASRLQSWVPSRFTGSGSGTDFALTISSLQPEDFATYYCQQTFSPRITFGPGTKVEMKR | no binding (tested: S/N<2.1) | no binding (tested: S/N<2.1) | no binding (tested: S/N<2.1) | 
